From PMC9638941, “Molecular basis of dual anti-CRISPR and auto-regulatory functions of AcrIF24” (Nucleic Acids Research, 2022)
Positions count from the first letter of the chain named.

Experiments:
[1] = target: P. aeruginosa type I-F Cascade complex (Cas5f1, Cas6f, six copies of Cas7f1, Cas8f1 and a 60 nt crRNA) (UniProt Q02MM2); assay: SEC followed by SDS-PAGE, band intensity quantified; settings: parent: est. 100; read off a plot
[2] = target: AcrIF24 Y128K/Y217W double mutant; assay: SEC-MALS; settings: parent: 55.76
[3] = target: AcrIF24 T129W; assay: SEC-MALS; settings: parent: 55.76
[4] = target: AcrIF24 R221W; assay: SEC-MALS; settings: parent: 55.76
[5] = target: the molecule itself; assay: SEC-MALS; Superdex 200 Increase 10/300 GL, SEC buffer (20 mM Tris-HCl pH 8.0, 150 mM NaCl), 0.4 ml/min, 20°C; DAWN-TREOS detector
[6] = target: T1, AcrIF24 wild type (Pseudomonas aeruginosa prophage, UniProt A0AA82WNY5 1-228); assay: EMSA; EMSA-P: 10 mM HEPES pH 7.5, 1 mM MgCl2, 20 mM KCl, 1 mM TCEP, 5% glycerol, 30 min on ice; 10% native 0.5x TBE gel, SYBR Gold; Cascade EMSA buffer not in material; settings: protein: recombinant, chain copies: 2, label: none (SYBR Gold stain)
T1 sequence: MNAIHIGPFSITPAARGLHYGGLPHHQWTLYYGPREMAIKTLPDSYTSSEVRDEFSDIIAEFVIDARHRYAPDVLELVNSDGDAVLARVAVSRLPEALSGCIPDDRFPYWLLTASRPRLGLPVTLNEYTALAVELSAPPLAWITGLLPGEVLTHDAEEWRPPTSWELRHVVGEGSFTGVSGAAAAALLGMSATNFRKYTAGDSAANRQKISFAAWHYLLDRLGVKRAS

[7] = target: T1, AcrIF24 wild type; assay: EMSA; concentration-dependent; EMSA-P: 10 mM HEPES pH 7.5, 1 mM MgCl2, 20 mM KCl, 1 mM TCEP, 5% glycerol, 30 min on ice; 10% native 0.5x TBE gel, SYBR Gold; Cascade EMSA buffer not in material; settings: protein: recombinant; chain copies: 2; label: none (SYBR Gold stain); blunt

AcrIF24 (wildtype, full length, residues 1-228) G189K
percent of parent [1]: 88%

AcrIF24 (wildtype, full length, residues 1-228) Y128K; Y217W
other: MW (kDa) by SEC-MALS [2]: 39.6 kDa

AcrIF24 (wildtype, full length, residues 1-228) T129W
other: MW (kDa) by SEC-MALS [3]: 53.9 kDa

AcrIF24 (wildtype, full length, residues 1-228) R221W
other: MW (kDa) by SEC-MALS [4]: 52.4 kDa

AcrIF24 (wildtype, full length, residues 1-228) D105K
percent of parent [1]: 98%

AcrIF24 (wildtype, full length, residues 1-228) G22Y
percent of parent [1]: 98%

AcrIF24 (wildtype, full length, residues 1-228) W110K
percent of parent [1]: 11%

B1: AcrIF24 (wildtype, full length, residues 1-228) (natural protein)
chain: T1 sequence
stoichiometry N [5]: 2

B2: IR-S (dsDNA)
DNA 1: TAGCTCGATTCGAGCTA
DNA 2: TAGCTCGAATCGAGCTA
binding result ([6]; blunt): binds

B3: IR-S half-site mutant (dsDNA)
DNA 1: GCATGATCTTCGAGCTA
DNA 2: TAGCTCGAAGATCATGC
binding result [6]: no binding

B4: IR-L (dsDNA)
DNA 1: CAGAATATCATTGCATAGCTCGATTCGAGCTAATATAGTAATACCAACAGCGCGGCACACCGCCAGCACTGAACCT
DNA 2: AGGTTCAGTGCTGGCGGTGTGCCGCGCTGTTGGTATTACTATATTAGCTCGAATCGAGCTATGCAATGATATTCTG
binding result [7]: binds

B5: IR-L half-site mutant (dsDNA)
DNA 1: B4 DNA 1 with T16G, A17C, G18A, C19T, T20G, C21A, G22T, A23C
DNA 2: B4 DNA 2 with T54G, C55A, G56T, A57C, G58A, C59T, T60G, A61C
binding result [6]: no binding
